Data as given in the supplement of paper PMC12764529.
± gives the half width of the 95% confidence interval.

Legend:
[1] = folding stability dG unfold (combined trypsin and chymotrypsin); higher = more stable
Method in brief: (§1)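 Digests were run with trypsin and chymotrypsin at 11 concentrations in threefold dilutions, plus a no-protease condition, on designed mini-proteins in a PA-tagged cDNA display construct. The mini-proteins were under 80 residues, had no cysteine, and were kept only when AlphaFold2 dimer inter-PAE was above 15. After sequencing, Bayesian fitting of the counts gave K50, from which unfolding free energy was derived against a sequence-predicted unfolded-state K50 and a shared folded-state K50, per protease or combined.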

[2] = folding stability dG unfold from chymotrypsin proteolysis; higher = more stable
Method in brief: as §1

[3] = folding stability dG unfold from trypsin proteolysis; higher = more stable
Method in brief: as §1

Row | Sequence | folding stability dG unfold [1] [kcal/mol] | folding stability dG unfold [2] [kcal/mol] | folding stability dG unfold [3] [kcal/mol]
1 | SMEILEMDIEEILSLLPEDIHPDVPYTLTVPGLEIRILDVAPVREEEGGPRPTTVIEVFLPDGPVVFPLESA [r9_279_TrMRF] | 1.11 ± 0.12 | 1.26 ± 0.069 | 0.872 ± 0.042
2 | SAGLKVESQTYDPATGTATVTPPLEGVPPDYTITVTDTATGKKTTLPPDGDVTLSNPTGPVTVTLTRPASAG [r14_134_JUSTAS] | 0.277 ± 0.074 | 0.354 ± 0.093 | 0.152 ± 0.038
3 | SAGGSPPDKWVTLPFTMRYPDNGLEVEVNIVINPDDGKIQVEMEVYDNGKPKQEVPATIPADEIKLSAGGSA [r2_188_TrROS] | 0.699 ± 0.13 | 0.594 ± 0.23 | 0.639 ± 0.035
4 | SIKFPDGSEIEFEWSEDKEYEVELPNGPIVKIKKVIKEGESWIVEVEFEDGSKVILEVDPNNPEEVQKAIAS [r1_66_TrMRF] | 2.06 ± 0.1 | 2.19 ± 0.072 | 1.77 ± 0.086
5 | SAGGSAGGSAGGKVVKFTRPDGKPVDAKKILSYDPDKPKLYVLVEDEGPVELREVDADKDSAGGSAGGSAGG [r7_236_TrMRF] | 0.161 ± 0.23 | 0.379 ± 0.32 | -0.245 ± 0.22
6 | SMTIELTVPSPEELLAALKALADAGIKGAKIRITVTNPDGEEQEIEVDSIEDLEALIESGPVTVRVEIEPSA [r9_589_TrROS_Hall] | 3.05 ± 0.14 | 2.5 ± 0.084 | 3.56 ± 0.13
7 | SAGGSAMYTVTLTLPPSLAIPPDSTITVTFPDGSTETYSVDSGPVTITLTAPADGSTSVGVSLSVPSAGGSA [r15_992_JUSTAS] | 3.27 ± 0.1 | 3.67 ± 0.04 | 2.6 ± 0.097
8 | SAGGKKLLIKVRIEVFNENGELVREEEIEIEVEGMSEEELEELARELLAKLPPENVKIEVEIVELEESAGGS [r16_774_TrROS_Hall] | 4.16 ± 0.35 | 4.31 ± 0.37 | 4.34 ± 0.94
9 | SAGKIEITVKPDGTVIIKVTVEVDGKKLELTIEVPPEMTIEEIIEKLKELAEELGVEKVEVEIVPLPPSAGG [r19_31_TrROS_Hall] | > 6 | 2.9 ± 0.45 | 3.9 ± 0.85
10 | SEKPLVTLELELVVETEEQARAAVEALLAALPEEEIVDIRVEVEEVDVFENGELVGRRRRVRVTIVVRRPSA [r9_605_TrROS_Hall] | 4.41 ± 0.25 | 4.06 ± 0.26 | 4.31 ± 0.24
11 | SAGGMILKITIPKEDEEKAKELADELAKKLEEETGKPIKVKVKVEKNENGELTIVIEVDGKKIEIKLSAGGS [r16_356_TrROS_Hall] | 0.999 ± 0.27 | 0.444 ± 0.078 | 1.32 ± 0.091
12 | SAGGSAGGSAGGELKAKFETFPSPYGKVILAEAEFEEPNLLAAIVIDEDGVPHLLVVSPDSAGGSAGGSAGG [r7_187_TrMRF] | 0.952 ± 0.12 | 0.858 ± 0.076 | 1.13 ± 0.064
13 | SAGGMKEIAKALGIKPEDVKIEEEEIEVNGKKVKKIKITVKDKKTKKEYKIELTIVYDKNGKIVKIELSAGG [r13_358_TrROS_Hall] | 4.63 ± 0.57 | 4.72 ± 0.28 | 3.61 ± 0.15
14 | SAGGSAGGTFEFFFPDGLYFTVEFRIVEMHPNPGNGQMHMRMEATIKIIPLPPPPPPPKDPGDKSAGGSAGG [r6_939_TrROS] | 3.83 ± 0.2 | 4.3 ± 0.12 | 2.71 ± 0.087
15 | SAGGSAGGSAGGLVEQAVRAIREAKKAGLKEVVIYLSEEQKEAVKEAAEKEGLKVKIVPESAGGSAGGSAGG [r11_371_TrROS_Hall] | 0.589 ± 0.086 | 0.814 ± 0.021 | 0.244 ± 0.048
16 | SAGGLAKAVAEELGLPELKVKEVRFAPDPAGPGLTVEVVFELPDGSYLRVEVRFHPDRIEIKAVPLPPSAGG [r19_392_TrMRF] | 3.23 ± 0.15 | 3.65 ± 0.15 | 2.09 ± 0.093
17 | SAGGSAGGSAGGFRIKITEIWPISMEMRKPDPENGKWKEQPMTIMIIRIKIENLPPGAKISAGGSAGGSAGG [r17_530_TrROS] | 3.41 ± 0.1 | 3.9 ± 0.079 | 2.54 ± 0.048
18 | SAGGSPSTVVPTLLTLEIVKKDEKGNETSETIPVLVEDSPEEARERLIEEIEKKYGAEVVKVTVKPESAGGS [r16_511_JUSTAS] | -0.608 ± 0.18 | -1.22 ± 0.27 | -0.576 ± 0.07
19 | SAGGSAGGMKEITITNENGETLRIKVFNKETGEEKEIEFPAGMSLEDILKKLKEEEGLEVEIEPSAGGSAGG [r6_202_TrROS_Hall] | 3.01 ± 0.16 | 3.16 ± 0.071 | 2.27 ± 0.14
20 | SWKIKISIERTGDWITVKIWYDNPSELRNAIEMIAEKLGMKVEIDDVSWKRDPNGWYEATITVRIKPGMPSA [r9_102_TrROS] | 3.42 ± 0.16 | 3.31 ± 0.077 | 3.27 ± 0.18
21 | SAGGLEEKILEAVKNMSPEEPVVEREVELPDGKLKVTVTRDGLPYTVTITRTNPDGTTTTTTTTILLSAGGS [r16_642_JUSTAS] | 2.34 ± 0.12 | 2.37 ± 0.046 | 2.46 ± 0.16
